± gives the uncertainty stated by the source.
Test: self-splicing fitness, log relative to wild type (ln ratio); higher = more splicing; Tetrahymena group I intron in knt gene, E. coli kanamycin selection, DiMSum; sequences stand for … in CUCUCU…GGAGGGAAAAGUUAUCAGGCAUGCACCUGGUAGCUAGUCUUUAAACCAAUAGAUUGCAUCGGUUUAAAAGGCAAGACCGUCAAAUUGCGGGAAAGGGGUCAACAGCCGUUCAGUACCAAGUCUCAGGGGAAACUUUGAGAUGGCCUUGCAAAGGGUAUGGUAAUAAGCUGACGGACAUGGUCCUAACCACGCAGCCAAGUCCUAAGUCAACAGAUCUUCUGUUGAUAUGGAUGCAGUUCACAGACUAAAUGUCGGUCGGGGAAGAUGUAUUCUUCUCAUAAGAUAUAGUCGGACCUCUCCUUAAUGGGAGCUAGCGGAUGAAGUGAUGCAACACUGGAGCCGCUGGGAACUAAUUUGUAUGCGAAAGUAUAUUGAUUAGUUUUGGAGUACUCGUGGUCG
Outline: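 DiMSum derived fitness as the error-weighted combination of fold changes across replicates, kanamycin versus no kanamycin, normalised to wild type. E. coli BL21(DE3) held the library, which randomised all eight P1ex-region intron nucleotides within the knt kanamycin-resistance gene on pET-22b(+). Six replicate transformations grew overnight at 37°C or 30°C on LB agar with or without 25 μg/mL kanamycin, also containing 100 μg/mL carbenicillin, 50 μM IPTG and 0.2% rhamnose, and pooled colonies were amplicon-sequenced on an Illumina HiSeq 2500.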

Sequence | self-splicing fitness (ln) (30 °C) | self-splicing fitness (ln) (37 °C)
UCGAAGCAAUAUUACGUUUC | -1.9 ± 0.14 | -3.66 ± 0.36
UCGAAGCAAUAUUACGUUUG | -2.67 ± 0.13 | -1.88 ± 0.15
UCGCAGCAAUAUUACGAAUU | -4.07 ± 0.34 | -2.75 ± 0.17
UCGCAGCAAUAUUACGACAU | -3.604 ± 0.025 | -2.56 ± 0.037
UCGCAGCAAUAUUACGAGUG | -1.48 ± 0.088 | -0.719 ± 0.1
UCGCAGCAAUAUUACGAUAC | -3.52 ± 0.46 | -2.76 ± 0.34
UCGCAGCAAUAUUACGAUGA | -0.691 ± 0.072 | 0.0326 ± 0.081
UCGCAGCAAUAUUACGAUGC | -3.73 ± 0.28 | -1.64 ± 0.2
UCGCAGCAAUAUUACGAUUG | -3.66 ± 0.18 | -1.9 ± 0.16
UCGCAGCAAUAUUACGCACA | -0.0778 ± 0.1 | -0.131 ± 0.13
UCGCAGCAAUAUUACGCACC | -1.68 ± 0.27 | -1.6 ± 0.38
UCGCAGCAAUAUUACGCAGA | -3.72 ± 0.29 | -0.987 ± 0.12
UCGCAGCAAUAUUACGCCCG | -1.51 ± 0.35 | 
UCGCAGCAAUAUUACGCGGU | -4.16 ± 0.24 | -2.41 ± 0.28
UCGCAGCAAUAUUACGCUGA | -2.33 ± 0.21 | -1.15 ± 0.14
UCGCAGCAAUAUUACGCUUA | -1.67 ± 0.12 | -0.94 ± 0.09
UCGCAGCAAUAUUACGGACU | -2.14 ± 0.16 | -0.513 ± 0.16
UCGCAGCAAUAUUACGGAUA | -2.58 ± 0.25 | -2.44 ± 0.26
UCGCAGCAAUAUUACGGCGG | -3.41 ± 0.17 | -2.28 ± 0.21
UCGCAGCAAUAUUACGGUUC | -3.65 ± 0.43 | -1.66 ± 0.3
UCGCAGCAAUAUUACGUAUG | -1.83 ± 0.1 | -2.02 ± 0.15
UCGCAGCAAUAUUACGUCAC | -3.57 ± 0.15 | -2.85 ± 0.16
UCGCAGCAAUAUUACGUCCU | -1 ± 0.097 | -0.105 ± 0.092
UCGCAGCAAUAUUACGUCUU | -1 ± 0.11 | -0.165 ± 0.12
UCGCAGCAAUAUUACGUGCG | -4.06 ± 0.22 | -3.23 ± 0.3

Sequence | self-splicing fitness (ln) (30 °C) | self-splicing fitness (ln) (37 °C)
UCGCAGCAAUAUUACGUUAG | -2.74 ± 0.15 | -1.63 ± 0.17
UCGCAGCAAUAUUACGUUCA | -0.883 ± 0.07 | 0.0196 ± 0.064
UCGGAGCAAUAUUACGAUUA |  | 0.203 ± 0.28
UCGGAGCAAUAUUACGCUAC | -2.11 ± 0.34 | 
UCGGAGCAAUAUUACGCUCU | -2.27 ± 0.36 | -1.68 ± 0.23
UCGGAGCAAUAUUACGCUGC | -3.04 ± 0.38 | 
UCGGAGCAAUAUUACGGAAU |  | -2.38 ± 0.42
UCGGAGCAAUAUUACGGCUA |  | -1.32 ± 0.39
UCGGAGCAAUAUUACGGCUG | -2.33 ± 0.18 | -1.5 ± 0.19
UCGGAGCAAUAUUACGGGAC |  | -1.99 ± 0.29
UCGGAGCAAUAUUACGGGCG | -1.37 ± 0.11 | -1.39 ± 0.18
UCGGAGCAAUAUUACGGUGA | -1.82 ± 0.27 | -1.05 ± 0.2
UCGGAGCAAUAUUACGUAAG | -2.77 ± 0.46 | -1.39 ± 0.42
UCGGAGCAAUAUUACGUCCU | -1.79 ± 0.17 | -0.83 ± 0.25
UCGGAGCAAUAUUACGUGGC |  | -1.95 ± 0.38
UCGGAGCAAUAUUACGUUCA |  | -2.2 ± 0.47
UCGGAGCAAUAUUACGUUGC | -2.44 ± 0.28 | -1.78 ± 0.42
UCGGAGCAAUAUUACGUUGU | -3.7 ± 0.22 | -1.93 ± 0.21
UCGUAGCAAUAUUACGAAGU | -3.58 ± 0.47 | -3.06 ± 0.35
UCGUAGCAAUAUUACGAAUU | -3.74 ± 0.29 | -3.57 ± 0.46
UCGUAGCAAUAUUACGAGAU | -4.2 ± 0.42 | -2.6 ± 0.39
UCGUAGCAAUAUUACGCCGA | -0.812 ± 0.31 | -2.03 ± 0.27
UCGUAGCAAUAUUACGCCUA | -0.658 ± 0.13 | 0.291 ± 0.11
UCGUAGCAAUAUUACGCGAU | -3.29 ± 0.24 | -2.36 ± 0.28
UCGUAGCAAUAUUACGGAGA | -2.51 ± 0.18 | -2.53 ± 0.27
